Legend:
[1] = target: rat ASIC1a/2a heteromeric channel stably expressed in CHO cells (rat) (UniProt P55926)
[2] = target: rat ASIC1a/2a heteromeric channel stably expressed in CHO cells (rat) (UniProt P55926); remark: listed apart in the source
[3] = target: rat ASIC1a/2a heteromeric channel stably expressed in CHO cells (rat) (UniProt P55926); remark: listed apart in the source

Chain of UniProt P55926 (P55926 whole entry, chain 1 of 2): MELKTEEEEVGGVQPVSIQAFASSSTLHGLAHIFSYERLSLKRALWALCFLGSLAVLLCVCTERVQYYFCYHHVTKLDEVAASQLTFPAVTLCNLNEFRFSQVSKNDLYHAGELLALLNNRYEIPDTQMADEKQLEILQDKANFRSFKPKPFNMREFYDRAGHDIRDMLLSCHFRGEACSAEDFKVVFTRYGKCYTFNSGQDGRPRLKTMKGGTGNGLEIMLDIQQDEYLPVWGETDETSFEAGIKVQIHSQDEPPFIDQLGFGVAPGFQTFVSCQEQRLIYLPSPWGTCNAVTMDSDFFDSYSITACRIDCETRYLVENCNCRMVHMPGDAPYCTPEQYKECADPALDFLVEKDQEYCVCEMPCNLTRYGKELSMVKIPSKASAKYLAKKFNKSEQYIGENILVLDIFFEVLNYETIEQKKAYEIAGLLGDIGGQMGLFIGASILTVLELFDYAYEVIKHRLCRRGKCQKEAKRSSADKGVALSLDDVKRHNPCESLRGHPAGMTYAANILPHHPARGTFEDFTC
Chain of UniProt P55926 (P55926 other isoform, or with tags, fused parts or gaps, chain 2 of 2): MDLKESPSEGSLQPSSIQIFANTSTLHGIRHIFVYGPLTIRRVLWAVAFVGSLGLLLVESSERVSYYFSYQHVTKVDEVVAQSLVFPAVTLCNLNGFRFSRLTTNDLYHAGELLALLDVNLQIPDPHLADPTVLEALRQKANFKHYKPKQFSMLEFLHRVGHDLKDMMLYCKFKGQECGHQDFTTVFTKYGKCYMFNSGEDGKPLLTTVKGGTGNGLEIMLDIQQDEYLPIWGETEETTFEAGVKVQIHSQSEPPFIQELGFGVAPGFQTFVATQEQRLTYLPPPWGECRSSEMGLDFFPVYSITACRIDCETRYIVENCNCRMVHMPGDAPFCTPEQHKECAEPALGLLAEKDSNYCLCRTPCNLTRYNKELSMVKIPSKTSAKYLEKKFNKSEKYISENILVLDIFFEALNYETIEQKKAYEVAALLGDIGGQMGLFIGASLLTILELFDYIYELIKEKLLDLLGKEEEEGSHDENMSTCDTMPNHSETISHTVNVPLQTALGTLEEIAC

Psalmotoxin (PcTx1) (from UniProt P60514 1-40) (peptide)
whole-cell patch clamp on CHO cells: inhibition of pH6.0-induced current at conditioning pH 7.0, 1-300 nM PcTx1 (inhibition incomplete, plateau ~75%) [1]: 2.9 nM | current clamp on CHO cells: potentiation of pH6.8-induced membrane depolarization at conditioning pH 7.4, 1-300 nM PcTx1 [2]: 56.1 nM | whole-cell patch clamp on CHO cells: potentiation of pH6.8-induced current at conditioning pH 7.4, 1-300 nM PcTx1 [2]: 124 nM | threshold concentration of PcTx1 for potentiation of pH6.8-induced responses at conditioning pH 7.4 (wash-off experiments; CHO cells, rat and mouse cortical neurons) [3]: < 10 nM

Source: article PMC5940917
